# How the values were obtained:
# Test in all cases: PIF affinity column + LC-MS/MS, CD14+ cell lysate
# [1] = target: Nuclear autoantigenic sperm protein (human) (UniProt P49321)
# [2] = target: Isoform Short of 14-3-3 protein beta/alpha (human) (UniProt P31946)
# [3] = target: 78 kDa glucose-regulated protein (human) (UniProt P11021)
# [4] = target: Filamin-A (human) (UniProt P21333)
# [5] = target: Endoplasmin (human) (UniProt P14625)
# [6] = target: Coronin-1A (human) (UniProt P31146)
# [7] = target: Protein S100-A8 (human) (UniProt P05109)
# [8] = target: Myosin-9 (human) (UniProt P35579)
# [9] = target: Tropomyosin alpha-3 chain (human) (UniProt P06753)
# [10] = target: Histone-binding protein RBBP7 (human) (UniProt E9PC52)
# [11] = target: Annexin A1 (human) (UniProt P04083)
# [12] = target: Matrin-3 (human) (UniProt A8MXP9)
# [13] = target: Heat shock protein HSP 90-beta (human) (UniProt P08238)
# [14] = target: Vimentin (human) (UniProt P08670)
# [15] = target: Isoform 2 of Adenylyl cyclase-associated protein 1 (human) (UniProt Q01518)
# [16] = target: 14-3-3 protein eta (human) (UniProt Q04917)
# [17] = target: Isoform 2 of Heat shock protein HSP 90-alpha (human) (UniProt P07900)
# [18] = target: Tubulin alpha-4A chain (human) (UniProt P68366)
# [19] = target: Thymosin alpha-1 (human) (UniProt P06454)
# [20] = target: Protein disulfide-isomerase A4 (human) (UniProt P13667)
# [21] = target: Actin, cytoplasmic 2 (human) (UniProt P63261)
# [22] = target: Tropomodulin-3 (human) (UniProt Q9NYL9)
# [23] = target: Gelsolin (human) (UniProt P06396)
# [24] = target: Plastin-2 (human) (UniProt P13796)
# [25] = target: Tropomyosin alpha-4 chain (human) (UniProt P67936)
# [26] = target: Isoform 2 of Ras suppressor protein 1 (human) (UniProt Q15404)
# [27] = target: Talin-1 (human) (UniProt Q9Y490)
# [28] = target: 14-3-3 protein zeta/delta (human) (UniProt P63104)
# [29] = target: 14-3-3 protein theta (human) (UniProt P27348)
# [30] = target: Hornerin (human) (UniProt Q86YZ3)
# [31] = target: Lymphocyte-specific protein 1 (human) (UniProt P33241)
# Isoform 2 of Ras suppressor protein 1 (human), sequence (Q15404 54-277 limits assumed): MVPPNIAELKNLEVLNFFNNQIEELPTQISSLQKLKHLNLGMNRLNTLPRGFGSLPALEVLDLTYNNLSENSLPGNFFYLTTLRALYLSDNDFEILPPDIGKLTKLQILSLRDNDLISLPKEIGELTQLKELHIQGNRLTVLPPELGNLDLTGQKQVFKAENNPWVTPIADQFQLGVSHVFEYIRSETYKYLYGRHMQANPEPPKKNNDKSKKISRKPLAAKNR
# 14-3-3 protein eta (human), sequence (Q04917 2-246 limits assumed): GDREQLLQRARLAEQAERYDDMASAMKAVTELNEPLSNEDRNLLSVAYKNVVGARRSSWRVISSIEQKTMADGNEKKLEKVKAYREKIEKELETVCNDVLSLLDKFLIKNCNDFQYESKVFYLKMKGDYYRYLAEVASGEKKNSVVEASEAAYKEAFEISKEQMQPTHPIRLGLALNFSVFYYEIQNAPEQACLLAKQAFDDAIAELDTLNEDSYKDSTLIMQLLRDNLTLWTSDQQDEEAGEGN
# Heat shock protein HSP 90-beta (human), sequence (P08238 2-724 limits assumed): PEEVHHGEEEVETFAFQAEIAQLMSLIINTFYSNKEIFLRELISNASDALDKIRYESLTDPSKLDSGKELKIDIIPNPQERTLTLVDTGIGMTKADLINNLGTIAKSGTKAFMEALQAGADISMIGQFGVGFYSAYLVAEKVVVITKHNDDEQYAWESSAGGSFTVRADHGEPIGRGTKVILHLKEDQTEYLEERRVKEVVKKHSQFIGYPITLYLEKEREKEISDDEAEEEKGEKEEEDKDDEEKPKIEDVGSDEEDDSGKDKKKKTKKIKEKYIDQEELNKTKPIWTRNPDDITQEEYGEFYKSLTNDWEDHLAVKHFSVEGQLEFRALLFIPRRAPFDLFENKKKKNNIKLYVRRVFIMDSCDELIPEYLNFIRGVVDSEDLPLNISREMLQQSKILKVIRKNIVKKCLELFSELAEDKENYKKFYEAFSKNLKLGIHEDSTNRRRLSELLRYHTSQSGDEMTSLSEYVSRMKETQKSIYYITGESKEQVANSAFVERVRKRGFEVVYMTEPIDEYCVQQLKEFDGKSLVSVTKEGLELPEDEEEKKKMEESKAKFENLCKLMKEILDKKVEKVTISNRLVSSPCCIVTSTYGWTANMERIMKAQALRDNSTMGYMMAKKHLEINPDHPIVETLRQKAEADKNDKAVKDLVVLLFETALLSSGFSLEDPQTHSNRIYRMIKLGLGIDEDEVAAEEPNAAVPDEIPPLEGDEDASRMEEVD
# Vimentin (human), sequence (P08670 2-466 limits assumed): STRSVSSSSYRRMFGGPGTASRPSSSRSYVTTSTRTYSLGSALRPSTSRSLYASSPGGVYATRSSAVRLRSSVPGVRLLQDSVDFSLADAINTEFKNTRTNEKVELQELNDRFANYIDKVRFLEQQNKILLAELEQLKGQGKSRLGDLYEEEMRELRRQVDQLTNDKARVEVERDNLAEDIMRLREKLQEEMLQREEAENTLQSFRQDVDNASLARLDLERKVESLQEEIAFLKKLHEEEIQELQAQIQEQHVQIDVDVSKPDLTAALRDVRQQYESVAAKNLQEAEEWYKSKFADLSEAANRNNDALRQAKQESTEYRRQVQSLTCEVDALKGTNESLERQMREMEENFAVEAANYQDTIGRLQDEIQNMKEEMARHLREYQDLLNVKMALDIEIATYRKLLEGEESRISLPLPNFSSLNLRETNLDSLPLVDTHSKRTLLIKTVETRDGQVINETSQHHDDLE
# Hornerin (human), sequence (Q86YZ3 whole entry): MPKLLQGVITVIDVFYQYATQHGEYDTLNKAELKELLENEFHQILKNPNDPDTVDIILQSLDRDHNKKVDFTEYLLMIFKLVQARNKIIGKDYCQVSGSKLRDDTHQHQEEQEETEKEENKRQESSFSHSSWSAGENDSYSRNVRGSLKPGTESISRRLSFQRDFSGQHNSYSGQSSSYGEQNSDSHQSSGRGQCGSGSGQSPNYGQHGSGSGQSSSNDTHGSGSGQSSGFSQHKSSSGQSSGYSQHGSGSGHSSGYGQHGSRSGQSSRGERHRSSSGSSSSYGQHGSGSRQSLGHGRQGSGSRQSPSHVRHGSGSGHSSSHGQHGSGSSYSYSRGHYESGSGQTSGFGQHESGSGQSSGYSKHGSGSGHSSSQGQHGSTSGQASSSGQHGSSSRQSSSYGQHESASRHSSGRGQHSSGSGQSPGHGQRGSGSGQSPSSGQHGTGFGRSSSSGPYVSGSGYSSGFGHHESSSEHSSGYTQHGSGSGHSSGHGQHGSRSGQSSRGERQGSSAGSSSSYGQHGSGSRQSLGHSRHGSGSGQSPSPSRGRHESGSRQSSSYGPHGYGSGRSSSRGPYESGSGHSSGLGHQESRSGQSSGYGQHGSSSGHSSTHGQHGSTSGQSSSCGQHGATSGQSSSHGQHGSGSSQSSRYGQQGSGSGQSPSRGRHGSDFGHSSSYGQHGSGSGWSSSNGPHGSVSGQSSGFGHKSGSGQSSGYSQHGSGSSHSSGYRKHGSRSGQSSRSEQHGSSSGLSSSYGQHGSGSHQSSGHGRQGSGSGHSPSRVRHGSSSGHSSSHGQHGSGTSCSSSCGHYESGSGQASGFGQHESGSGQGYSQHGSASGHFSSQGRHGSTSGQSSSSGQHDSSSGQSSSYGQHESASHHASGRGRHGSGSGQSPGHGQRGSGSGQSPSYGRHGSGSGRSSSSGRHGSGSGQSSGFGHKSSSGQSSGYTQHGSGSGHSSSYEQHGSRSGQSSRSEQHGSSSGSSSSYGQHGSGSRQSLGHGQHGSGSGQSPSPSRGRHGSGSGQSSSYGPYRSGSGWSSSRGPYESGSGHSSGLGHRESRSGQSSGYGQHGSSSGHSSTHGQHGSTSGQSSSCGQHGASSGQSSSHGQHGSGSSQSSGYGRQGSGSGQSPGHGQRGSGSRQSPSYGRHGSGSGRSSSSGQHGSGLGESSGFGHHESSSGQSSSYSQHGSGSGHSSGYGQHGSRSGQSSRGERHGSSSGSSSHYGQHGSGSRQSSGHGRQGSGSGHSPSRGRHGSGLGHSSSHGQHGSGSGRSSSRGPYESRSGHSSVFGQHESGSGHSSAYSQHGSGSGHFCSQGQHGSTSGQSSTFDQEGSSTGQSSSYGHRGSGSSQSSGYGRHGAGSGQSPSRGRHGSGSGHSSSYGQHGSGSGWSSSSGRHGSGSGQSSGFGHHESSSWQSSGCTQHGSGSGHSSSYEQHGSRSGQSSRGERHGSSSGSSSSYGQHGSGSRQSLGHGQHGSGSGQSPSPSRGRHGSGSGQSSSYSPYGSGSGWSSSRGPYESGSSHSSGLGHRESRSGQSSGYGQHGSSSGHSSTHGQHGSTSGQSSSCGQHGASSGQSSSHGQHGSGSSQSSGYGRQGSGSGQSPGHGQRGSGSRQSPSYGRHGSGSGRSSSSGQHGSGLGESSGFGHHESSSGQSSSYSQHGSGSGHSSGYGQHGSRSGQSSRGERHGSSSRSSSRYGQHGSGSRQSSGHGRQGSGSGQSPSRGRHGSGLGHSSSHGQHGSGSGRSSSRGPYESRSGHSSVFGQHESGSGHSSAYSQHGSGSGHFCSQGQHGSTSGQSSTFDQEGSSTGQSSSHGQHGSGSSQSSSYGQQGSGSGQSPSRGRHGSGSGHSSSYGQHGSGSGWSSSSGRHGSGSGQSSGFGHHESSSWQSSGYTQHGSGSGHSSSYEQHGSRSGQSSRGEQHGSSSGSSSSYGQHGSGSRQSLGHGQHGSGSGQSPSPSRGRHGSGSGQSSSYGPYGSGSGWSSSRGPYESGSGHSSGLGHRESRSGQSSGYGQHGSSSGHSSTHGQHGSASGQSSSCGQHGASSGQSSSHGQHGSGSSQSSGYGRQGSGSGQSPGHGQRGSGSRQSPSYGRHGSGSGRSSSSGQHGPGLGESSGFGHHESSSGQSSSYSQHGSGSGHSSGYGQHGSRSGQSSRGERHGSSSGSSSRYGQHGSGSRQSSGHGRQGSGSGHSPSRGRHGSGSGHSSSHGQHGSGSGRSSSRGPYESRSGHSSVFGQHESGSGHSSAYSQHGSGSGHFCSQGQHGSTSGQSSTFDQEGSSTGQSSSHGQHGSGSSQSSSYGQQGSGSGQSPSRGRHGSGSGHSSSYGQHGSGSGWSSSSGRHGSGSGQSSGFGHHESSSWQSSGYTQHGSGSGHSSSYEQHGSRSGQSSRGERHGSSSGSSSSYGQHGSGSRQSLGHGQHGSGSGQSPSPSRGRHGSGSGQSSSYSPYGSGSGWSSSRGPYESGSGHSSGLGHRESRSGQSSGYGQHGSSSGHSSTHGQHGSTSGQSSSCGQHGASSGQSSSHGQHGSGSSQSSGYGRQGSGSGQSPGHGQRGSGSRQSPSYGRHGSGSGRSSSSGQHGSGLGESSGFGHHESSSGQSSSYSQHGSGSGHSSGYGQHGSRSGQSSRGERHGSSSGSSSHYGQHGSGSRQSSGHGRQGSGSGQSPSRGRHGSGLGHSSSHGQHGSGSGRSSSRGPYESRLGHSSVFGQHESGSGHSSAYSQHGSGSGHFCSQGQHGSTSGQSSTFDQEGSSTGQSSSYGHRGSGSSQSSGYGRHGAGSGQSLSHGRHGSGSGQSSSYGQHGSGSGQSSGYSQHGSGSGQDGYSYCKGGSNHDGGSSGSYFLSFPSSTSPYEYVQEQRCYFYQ
# Thymosin alpha-1 (human), sequence (P06454 other isoform, or with tags, fused parts or gaps limits assumed): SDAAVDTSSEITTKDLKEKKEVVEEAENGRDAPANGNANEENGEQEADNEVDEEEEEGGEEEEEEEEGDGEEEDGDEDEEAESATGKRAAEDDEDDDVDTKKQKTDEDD
# Tropomyosin alpha-4 chain (human), sequence (P67936 2-248 limits assumed): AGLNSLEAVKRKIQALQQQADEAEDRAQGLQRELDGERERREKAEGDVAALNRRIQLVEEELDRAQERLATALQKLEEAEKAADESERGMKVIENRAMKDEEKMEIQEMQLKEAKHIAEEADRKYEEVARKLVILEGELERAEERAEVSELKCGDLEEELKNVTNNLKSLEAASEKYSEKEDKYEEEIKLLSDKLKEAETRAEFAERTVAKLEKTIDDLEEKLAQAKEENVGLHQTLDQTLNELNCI
# Protein S100-A8 (human), sequence (P05109 whole entry): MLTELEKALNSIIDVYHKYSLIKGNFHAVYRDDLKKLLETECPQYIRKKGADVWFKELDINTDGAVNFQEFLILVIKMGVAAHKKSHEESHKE
substance,measurement,setting,value
PIF-resin (PIF15 affinity ligand on agarose) (peptide),Ave,[1],1
same,Inject 2,[1],0
same,Inject 3,[1],1
same,Inject 3,[2],4
same,Ave,[3],4
same,Ave,[4],5
same,Inject 1,[4],5
same,Ave,[5],1
same,Inject 1,[5],0
same,Inject 3,[5],1
same,Inject 3,[6],1
same,Inject 2,[7],1
same,Ave,[8],10
same,Inject 1,[8],11
same,Inject 2,[8],9
same,Inject 3,[8],10
same,Ave,[9],4
same,Inject 1,[9],4
same,Inject 3,[9],5
same,Ave,[10],1
same,Inject 2,[10],0
same,Inject 3,[10],1
same,Ave,[11],1
same,Inject 1,[11],0
same,Inject 2,[11],0
same,Ave,[12],1
same,Inject 1,[12],1
same,Inject 3,[12],1
same,Ave,[13],1
same,Inject 2,[13],1
same,Inject 3,[13],1
same,Ave,[14],10
same,Inject 1,[14],9
same,Inject 2,[14],11
same,Inject 3,[14],9
same,Inject 1,[15],4
same,Ave,[16],1
same,Inject 1,[16],1
same,Inject 2,[16],1
same,Ave,[17],1
same,Inject 1,[17],1
same,Inject 3,[17],1
same,Inject 3,[18],1
same,Ave,[19],5
same,Inject 1,[19],5
same,Inject 2,[19],5
same,Inject 3,[19],4
same,Inject 1,[20],4
same,Inject 2,[20],1
same,Ave,[21],7
same,Inject 1,[21],6
same,Inject 2,[21],7
same,Inject 3,[21],7
same,Ave,[22],1
same,Inject 1,[22],1
same,Inject 3,[22],1
same,Inject 2,[23],1
same,Inject 3,[23],1
same,Ave,[24],1
same,Inject 1,[24],1
same,Inject 2,[24],1
same,Ave,[25],8
same,Inject 1,[25],8
same,Inject 3,[25],8
same,Ave,[26],1
same,Inject 1,[26],0
same,Inject 2,[26],1
same,Inject 1,[27],5
same,Inject 3,[27],8
same,Ave,[28],4
same,Inject 1,[28],4
same,Inject 3,[28],4
same,Ave,[29],1
same,Inject 1,[29],1
same,Inject 2,[29],1
same,Ave,[30],1
same,Inject 1,[30],1
same,Inject 2,[30],0
same,Inject 1,[31],4
same,Inject 3,[31],1

# Source: US20230013244A1 (BioIncept, LLC, priority 2014, published 2023)
